# B1: RQ43 (TM-YTE) (antibody, V domains shown)
# VH: EVQLLETGGGLVQPGRSLRLSCAASGFPFDDYAIHWVRLAPGKGLEWVSSISWDSGSIGYADSVKGRFTISRDNAKNSLYLQMNSLRAEDTALYYCAKGAFPGYSSGWYYGLDVWGQGATVTVSS
# VL: QSVVTQPPSASGSLGQSVTISCTGTSSDVGGYNYVSWYQQHPGKAPKLMIFEVSKRPSGVPDRFSGSKSGNTASLTVSGLQAEDEADYYCSSYAGNKGVFGGGTKLTVL
# B2: RQ40 (TM-YTE) (antibody, V domains shown)
# VH: EVQLVESGAEVKKPGSSVKVSCKASGGTFSSYAINWVRQAPGQGLEWMGGIIPIFRTPHYAQKFQGRVTITADESTGTAYMELSSLRSEDTAVYYCASPSCGGDCPQYLKSSKLDWYFDLWGRGTLVTVSS
# VL: VIWMTQSPGTLSLSPGERATLSCRASQSVSSTYLAWYQQKPGQAPRLLIYGASSRATGIPDRFSGSGSGTDFTLTISRLEPEDFAVYYCQHYGSSPLTFGQGTRLEIK
# B3: RQ33 (TM-YTE) (antibody, V domains shown)
# VH: QVQLQESGPGLVKPSETLSLTCTVFGGSITSSNHYWVWIRQPPGKGLEWIGSMYYSGSTAYNPSLTNRVTISVDTSKNQFSLKLSSVTAADTAVYYCARQIGPKRPSQVADWFDPWGQGTLVTVSS
# VL: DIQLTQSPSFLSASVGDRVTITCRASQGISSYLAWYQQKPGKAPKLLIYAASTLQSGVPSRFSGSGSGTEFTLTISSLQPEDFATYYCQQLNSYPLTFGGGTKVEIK
# Target: SARS-CoV-2 spike RBD (residues 334-526), AviTag and 8×HisTag (SARS-CoV-2, UniProt P0DTC2 334-526)
row,Binder,Kd [nM]
1,B1,< 0.001
2,B2,< 0.001
3,B3,3.65

# Source: patent publication US20250289871A1 (AstraZeneca / MedImmune, published 2025)
